Source: patent US20260258124A1 (CIMEIO THERAPEUTICS, published 2026)
Positions count from the first letter of the chain named.

B1: NegCtrl (antibody, V domains shown)
VH: QVQLQQSGPGLVKPSQTLSLTCAISGDSVSSNSAAWSWIRQSPGRGLEWLGRIYYRSKWYNDYAVSVKSRITINPDTSKNQFSLQLNSVTPEDTAVYYCARLDHRYHEDTVYPGMDVWGQGTLVTVSS
VL: DIELTQPPSVSVAPGQTARISCSGDNLPAYTVTWYQQKPGQAPVLVIYDDSDRPSGIPERFSGSNSGNTATLTISGTQAEDEADYYCASWDPSSGVVFGGGTKLTVL
notes: also called NegCtrl antibody (anti-chicken lysozyme); NegCtrt
B2: FSI-174 (antibody, human IgG1, V domains shown)
VH: QVQLVQSGAEVKKPGASVKVSCKASGYTFTSYNMHWVRQAPGQGLEWMGVIYSGNGDTSYAQKFQGRVTITADKSTSTAYMELSSLRSEDTAVYYCARERDTRFGNWGQGTLVTVSS
VL: DIVMTQSPLSLPVTPGEPASISCRASESVDIYGQSFMHWYLQKPGQSPQLLIYLASNLESGVPDRFSGSGSGTDFTLKISRVEAEDVGVYYCQQNNEDPYTFGGGTKVEIK
B3: Dufour (antibody, V domains shown)
VH: B2 VH with A61N, Q65K, I70M, A72T, K74T, S84R, R87T, E89D, S117A
VL: EIVLTQSPSSLSASVGDRVTITCRASESVDIYGNSFMHWYQQKPGKAPKLLIYLASNLESGVPSRFSGSGSGTDFTLTISSLQPEDFATYYCQQNNEDPYTFGQGTKLEIK
notes: IgG; also called VH1/VL1; HC1 LC1
B4: AMG191 (antibody, human IgG1, V domains shown)
VH: B2 VH with A61N, Q65K
VL: DIVMTQSPDSLAVSLGERATINCRASESVDIYGNSFMHWYQQKPGQPPKLLIYLASNLESGVPDRFSGSGSGTDFTLTISSLQAEDVAVYYCQQNNEDPYTFGGGTKVEIKR
B5: Bellavista (antibody, V domains shown)
VH: B2 VH with N55Q, A61N, Q65K, I70M, A72T, K74T, S84R, R87T, E89D, S117A
VL: EIVLTQSPSSLSASVGDRVTITCRASESVDIYGESFMHWYQQKPGKAPKLLIYLASNLESGVPSRFSGSGSGTDFTLTISSLQPEDFATYYCQQNREEPYTFGQGTKLEIKR
notes: IgG; also called VH1.4/VL1.29
B6: Piz Zupo (antibody, V domains shown)
VH: B2 VH with A61N, Q65K, I70M, A72T, K74T, S84R, R87T, E89D, S117A
VL: B5 VL with E34Q, R96K
notes: IgG; also called VH1/VL1.25
B7: Matterhorn (antibody, V domains shown)
VH: B2 VH with A61N, Q65K, I70M, A72T, K74T, S84R, R87T, E89D, S117A
VL: B5 VL with E34S, R96N, E98D
notes: IgG; also called VH1/VL1.4; VH1/LC1.4
B8: Eiger (antibody, V domains shown)
VH: B2 VH with A61N, Q65K, I70M, A72T, K74T, S84R, R87T, E89D, S117A
VL: B5 VL with E34S, R96K
notes: IgG; also called VH1/VL1.26
B9: Weissmies (antibody, V domains shown)
VH: B2 VH with N55S, A61N, Q65K, I70M, A72T, K74T, S84R, R87T, E89D, S117A
VL: B5 VL with E34Y, R96N
notes: IgG; also called VH1.2/VL1.16
B10: Grand Combin (antibody, V domains shown)
VH: B2 VH with A61N, Q65K, I70M, A72T, K74T, S84R, R87T, E89D, S117A
VL: B5 VL with E34N, N95G, R96N, E98D
notes: IgG; also called VH1/VL1.9
B11: Breithorn (antibody, V domains shown)
VH: B2 VH with A61N, Q65K, I70M, A72T, K74T, S84R, R87T, E89D, S117A
VL: B5 VL with E34N, R96N
notes: IgG; also called VH1/VL1.15; VH1/LC1.15
B12: Dirruhorn (antibody, V domains shown)
VH: B2 VH with A61N, Q65K, I70M, A72T, K74T, S84R, R87T, E89D, S117A
VL: B5 VL with E34Y, R96K
notes: IgG; also called VH1/VL1.18; VH1/VH1.18
B13: Dent Blanche (antibody, V domains shown)
VH: B2 VH with A61N, Q65K, I70M, A72T, K74T, S84R, R87T, E89D, S117A
VL: B5 VL with E34F, R96N, E98D
notes: IgG; also called VH1/VL1.6
B14: Weisshorn (antibody, V domains shown)
VH: B2 VH with A61N, Q65K, I70M, A72T, K74T, S84R, R87T, E89D, S117A
VL: B5 VL with E34Q, R96N, E98D
notes: IgG; also called VH1/VL1.2; VH1/LC1.2
B15: Castor (antibody, V domains shown)
VH: B2 VH with A61N, Q65K, I70M, A72T, K74T, S84R, R87T, E89D, S117A
VL: B5 VL with E34N, N95E, R96N, E98D
notes: IgG; also called VH1/VL1.11
B16: Alphubel (antibody, V domains shown)
VH: B2 VH with A61N, Q65K, I70M, A72T, K74T, S84R, R87T, E89D, S117A
VL: B5 VL with E34N, R96K, E98D
notes: IgG; also called VH1/VL1.13
B17: Nadelhorn (antibody, V domains shown)
VH: B2 VH with A61N, Q65K, I70M, A72T, K74T, S84R, R87T, E89D, S117A
VL: B5 VL with E34Y, R96N, E98D
notes: IgG; also called VH1/VL1.8
B18: Schreckhorn (antibody, V domains shown)
VH: B2 VH with A61N, Q65K, I70M, A72T, K74T, S84R, R87T, E89D, S117A
VL: B5 VL with E34Y, R96N
notes: IgG; also called VH1/VL1.16
B19: Täschhorn (antibody, V domains shown)
VH: B2 VH with A61N, Q65K, I70M, A72T, K74T, S84R, R87T, E89D, S117A
VL: B5 VL with E34R, R96N, E98D
notes: IgG; also called VH1/VL1.3
B20: Finsteraarhor (antibody, V domains shown)
VH: B2 VH with A61N, Q65K, I70M, A72T, K74T, S84R, R87T, E89D, S117A
VL: B5 VL with E34N, N95R, R96N, E98D
notes: IgG; also called VH1/VL1.10; VH1/LC1.10
B21: Zinalrithorn (antibody, V domains shown)
VH: B2 VH with A61N, Q65K, I70M, A72T, K74T, S84R, R87T, E89D, S117A
VL: B5 VL with E34N, N95H, R96N, E98D
notes: IgG; also called VH1/VL1.12
B22: Ludwigshöhe (antibody, V domains shown)
VH: B2 VH with A61N, Q65K, I70M, A72T, K74T, S84R, R87T, E89D, S117A
VL: B5 VL with R96N, E98D
notes: IgG; also called VH1/VL1.7
B23: Lagginhorn (antibody, V domains shown)
VH: B2 VH with N55S, A61N, Q65K, I70M, A72T, K74T, S84R, R87T, E89D, S117A
VL: B5 VL with R96N
notes: IgG; also called VH1.2/VL1.17
B24: Parrot (antibody, V domains shown)
VH: B2 VH with A61N, Q65K, I70M, A72T, K74T, S84R, R87T, E89D, S117A
VL: B5 VL with E34K, R96N, E98D
notes: IgG; also called VH1/VL1.5

Molecular target: T1, CD117 on wild-type cells (TF-1 cells, HSPCs, HSCs) (human, UniProt P10721 26-976)
T1 sequence (P10721 26-976 limits assumed): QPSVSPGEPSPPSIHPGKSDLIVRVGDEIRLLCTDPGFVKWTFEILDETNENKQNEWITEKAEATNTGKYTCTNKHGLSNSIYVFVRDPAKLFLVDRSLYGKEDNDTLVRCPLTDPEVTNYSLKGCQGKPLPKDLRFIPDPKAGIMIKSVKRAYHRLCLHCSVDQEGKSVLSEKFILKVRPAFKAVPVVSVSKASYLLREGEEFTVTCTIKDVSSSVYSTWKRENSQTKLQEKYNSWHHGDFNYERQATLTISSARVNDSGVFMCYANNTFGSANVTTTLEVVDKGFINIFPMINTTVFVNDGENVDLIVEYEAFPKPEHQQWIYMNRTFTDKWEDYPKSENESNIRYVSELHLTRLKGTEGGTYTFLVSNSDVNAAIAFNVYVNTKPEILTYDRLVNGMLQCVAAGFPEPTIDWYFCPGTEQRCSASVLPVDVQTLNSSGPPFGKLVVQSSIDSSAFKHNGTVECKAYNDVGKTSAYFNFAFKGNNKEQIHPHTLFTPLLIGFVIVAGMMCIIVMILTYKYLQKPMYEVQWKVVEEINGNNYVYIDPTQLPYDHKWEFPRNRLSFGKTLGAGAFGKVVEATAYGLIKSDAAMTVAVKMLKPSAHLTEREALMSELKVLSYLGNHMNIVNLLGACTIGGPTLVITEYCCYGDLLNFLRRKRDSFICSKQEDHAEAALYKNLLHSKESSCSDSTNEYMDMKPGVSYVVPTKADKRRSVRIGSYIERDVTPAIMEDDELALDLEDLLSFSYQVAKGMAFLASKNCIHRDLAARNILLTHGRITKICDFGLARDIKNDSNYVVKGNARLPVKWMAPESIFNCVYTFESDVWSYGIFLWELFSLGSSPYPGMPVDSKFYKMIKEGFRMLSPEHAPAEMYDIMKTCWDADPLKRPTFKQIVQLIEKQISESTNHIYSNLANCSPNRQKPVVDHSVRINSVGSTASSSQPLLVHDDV
Test: cell-based or functional assay

Binder | IC50, inhibition of SCF-dependent proliferation of TF-1 cells (CellTiter-Glo), Average | IC50, inhibition of SCF-dependent proliferation of TF-1 cells (CellTiter-Glo), Experiment #1 | IC50, inhibition of SCF-dependent proliferation of TF-1 cells (CellTiter-Glo), Experiment #2
B1 | > 0.5 µg/mL | > 0.5 µg/mL | > 0.5 µg/mL
B2 | 0.0473 µg/mL | 0.0387 µg/mL | 0.056 µg/mL
B3 | 0.22 µg/mL | 0.12 µg/mL | 0.321 µg/mL
B4 | 0.208 µg/mL | 0.093 µg/mL | 0.323 µg/mL
B5 | 0.157 µg/mL | 0.103 µg/mL | 0.212 µg/mL
B6 | > 0.5 µg/mL | > 0.5 µg/mL | > 0.5 µg/mL
B7 | 0.116 µg/mL | 0.0648 µg/mL | 0.168 µg/mL
B8 | > 0.5 µg/mL | > 0.5 µg/mL | > 0.5 µg/mL

Molecular target: T2, human recombinant CD117 (c-Kit) from Sino Biological (Catalog No. 11996-H08H) (human, UniProt P10721 26-524)
T2 construct: also called soluble antigen
T2 sequence (P10721 26-524 limits assumed): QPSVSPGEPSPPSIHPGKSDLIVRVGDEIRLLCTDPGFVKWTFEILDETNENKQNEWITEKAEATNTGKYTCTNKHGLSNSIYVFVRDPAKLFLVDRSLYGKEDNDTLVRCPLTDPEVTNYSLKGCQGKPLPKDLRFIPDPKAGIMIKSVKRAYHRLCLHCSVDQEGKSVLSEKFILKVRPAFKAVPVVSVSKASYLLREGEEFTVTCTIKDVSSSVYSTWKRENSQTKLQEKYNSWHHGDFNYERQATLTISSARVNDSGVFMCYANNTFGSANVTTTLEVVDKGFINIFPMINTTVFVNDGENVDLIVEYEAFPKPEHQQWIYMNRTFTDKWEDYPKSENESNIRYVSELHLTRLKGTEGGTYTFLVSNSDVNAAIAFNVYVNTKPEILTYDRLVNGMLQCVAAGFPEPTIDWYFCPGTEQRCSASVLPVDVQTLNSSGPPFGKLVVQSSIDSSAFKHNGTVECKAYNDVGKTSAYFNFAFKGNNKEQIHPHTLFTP
Test: BLI Octet, set-up as in Example 2
Procedure: (§1) In the main experiment kinetic assays were performed by first capturing IgG using anti-human Fc biosensors. The mAb capture biosensors were then submerged in wells containing different concentrations of antigen (association stage) followed by a dissociation step in running buffer. To allow for double reference correction, IgG-captured sensors were dipped into wells containing only buffer and blank sensors were also dipped into wells containing the antigen. This referencing provided a means of compensating for both the natural dissociation of the capture IgG and non-specific binding of the antigen to the sensor surface. Steps were performed at 25° C. at a constant shaking of 1000 rpm. New sensors were used for each sample. Dissociation rate constants (Kd) were calculated using the ForteBio Data Analysis software. All consumables used were those recommended by ForteBio.
(§2) All samples were diluted in freshly prepared running buffer. Antibody variants were immobilized onto the surface of a series of biosensors using the capture methods described. Antigen was passed over the surface to generate a binding response. Binding data for the IgG:antigen interactions were collected at 25° C. on the biosensors. A dilution series of the antigen was used in the association step, in order to fit results globally and get the best values for ka, kd, and KD. The response data for the binding of antigen to the surface immobilized IgG were fitted to a 1:1 binding model. HC0 LC0 refers to murine SR-1.

Binder | Kd
B3 | 0.4 nM
B9 | 0.37 nM
B10 | 1.3 nM
B5 | 1.3 nM
B6 | 1.1 nM
B11 | 0.4 nM
B12 | 0.56 nM
B7 | 0.5 nM
B13 | 1.2 nM
B14 | 0.3 nM
B15 | 2.2 nM
B16 | 1.4 nM
B8 | 1.6 nM
B17 | 0.2 nM
B18 | 0.13 nM
B19 | 3.5 nM
B20 | 4 nM
B21 | 1.3 nM
B22 | 0.2 nM
B23 | 0.44 nM
B24 | 3.7 nM

Molecular target: T2, human recombinant CD117 (c-Kit) from …
Test: BLI Octet, IgG on anti-human Fc sensor, soluble CD117, 1:1 fit
Procedure: IgG antibodies were immobilized on biosensors using suitable capture surfaces and binding of soluble antigen to immobilized antibodies was monitored by BLI (Octet). The resulting sensorgrams were analyzed using the supplied software (Fortebio). As antigen human recombinant CD117 (c-Kit) from Sino Biological was used (Catalog No. 11996-H08H, Lot #LC14SE0812). As a pre-experiment a series of experiments was performed to optimize assay parameters. The following parameters were selected:
as §1, §2

Binder | Kd | koff | kon
B3 | 0.79 nM | 0.000397 s⁻¹ | 503000 M⁻¹ s⁻¹

Molecular target: T1, CD117 on wild-type cells (TF-1 cells, …)
Test: cell-based or functional assay
Remark: another data set of the same source

Binder | IC50, inhibition of SCF-dependent proliferation of CD34-positive HSPCs (CellTiter-Glo)
B1 | > 10 µg/mL
B2 | 0.0253 µg/mL
B3 | 0.0949 µg/mL
B4 | 0.0954 µg/mL
B5 | 0.096 µg/mL
B6 | 0.114 µg/mL
B7 | 0.0716 µg/mL
B8 | 0.594 µg/mL

Molecular target: T1, CD117 on wild-type cells (TF-1 cells, …)
Test: flow cytometry on TF-1 wild-type cells, Fc receptors blocked, goat anti-human IgG Alexa Fluor 488 as secondary antibody
Procedure: Binding of the antibodies of the present disclosure to CD117 on TF-1 cells was measured. TF-1 wild-type cells were seeded at a concentration of 100,000 cells/well. A Fc receptor blocking was performed using 25 μL TruStain FcX (BioLegend) for 15 min. Next cells are treated with various concentrations of the antibodies to be tested (0.0001-5 μg/ml). After additional 30 min cells were washed, then a secondary antibody was added to the cells (IgG (H+L) Cross-Adsorbed Goat anti-Human, Alexa Fluor® 488). After 30 min and two additional wash steps a live dead staining via 7AAD (7-aminoactinomycin D) was performed using 0.5 μg/mL 7AAD for 10 min before analyzing cells in a flow cytometer.

Binder | binding result
B1 | no binding (tested: 5 ug/ml)
